Data published in patent US20240116999A1, “CONFORMATIONALLY CONSTRAINED GLUCAGON ANALOGUES AND THEIR USE IN GLUCAGON-SINGLE CHAIN INSULIN FUSION PROTEINS” (THE TRUSTEES OF INDIANA UNIVERSITY, priority 2021, published 2024).
Bridge positions count the residues as written; N and C are the ends. Square brackets hold non-standard residues; d marks the D form. Orn = NCCC[C@H](N)C(=O)O

B1: HSQGTFTSDYSOKLDSEOAQDFVQWLMNTEEKFVNQHLCGSHLVEALYLVCGEOGFFYTPETEEGPOOGIVEQCCQSICSLEQLENYCN (protein)
chain: HSQGTFTSDYSXKLDSEXAQDFVQWLMNTEEKFVNQHLCGSHLVEALYLVCGEXGFFYTPETEEGPXXGIVEQCCQSICSLEQLENYCN
modifications: K13-E17 lactam; ornithine residues; glucagon/insulin fusion peptide analog; (12)..(12) Xaa at position 12 is ornithine; (18)..(18) Xaa at position 18 is ornithine; (54)..(54) Xaa at position 54 is ornithine; (67)..(67) Xaa at position 67 is ornithine; (68)..(68) Xaa at position 68 is ornithine
notes: fusion protein made by trypsin-mediated ligation
B2: HSQGTFTSDYSOKLDSEOAQDFVQWLMNTEEKFVNQHLCGSHLVEALYLVCGEOGFFYTPETEEGPOOGILEQCCQSICSLEQLENYCN (protein)
chain: HSQGTFTSDYS[Orn]KLDSE[Orn]AQDFVQWLMNTEEKFVNQHLCGSHLVEALYLVCGE[Orn]GFFYTPETEEGP[Orn][Orn]GILEQCCQSICSLEQLENYCN
modifications: lactam 13-17; ends not checked
notes: as for B1

Assays:
STZ (diabetic) rats = assay: In vivo assay in STZ (diabetic) rats, subcutaneous injection; design: species or system rat; conditions: for effect on blood glucose levels: FIG. 17, STZ rats, 12 nmol/kg per rat
Excerpt: FIG. 17 presents an in vivo assay done in STZ rats.
FIG. 18 presents another in vivo assay done in STZ rats. The four fusion proteins used in FIG. 17 were subcutaneously injected at doses of 23.8 nmol/kg per rat. […] In this study both fusion proteins carrying an active SCI analogue had similar activities.

[1] = Thioflavin T (ThT) fibrillation assay; format: physicochemical; conditions: FIG. 15; month-long assay, 100 μM, pH 7.4, 37° C.
Protocol: Fibrillation Assays. We employed an automated plate-based fluorescent device to monitor the time course of peptide fibrillation using a Thioflavin T (ThT) assay. This assay is based on the THT fluorescence emission at 480 nm upon binding to mature fibrils when excited at 440 nm. The assay was performed by preparing stock solutions of the fusion protein and the individual peptides in either NaCl 0.9% (pH 2.5) or PBS (pH 7.4). Our experience has identified 100-μM final concentration as optimal fibrillation conditions for glucagon analogues. Stock solutions were diluted with NaCl 0.9% or 1X PBS buffer, pH adjusted (with 1N HCl or 1N NaOH) mixed with Thioflavin-T (THT) at a final concentration of 16 μM, centrifuged, and 250 μl of the sample were placed on a 96-well plate with 4-10 technical replicates. Measurements were done every 15 minutes and the sample agitated at 1096 cpm at 37° C. on a Synergy H1 microplate reader (BioTek, Winooski, VT). The lag time, defined as the time-point at which fibrillation starts its exponential phase, was considered as the point at which fluorescence was 3 times the background signal.

Molecule	effect on blood glucose levels (STZ (diabetic) rats)	activity at 23.8 nmol/kg relative to the 12-nmol/kg rat doses (STZ (diabetic) rats; FIG. 18 vs FIG. 17, STZ rats)	formation of amyloid-like fibrils [1]	effect on blood-glucose concentrations (STZ (diabetic) rats; FIG. 18, STZ rats, 23.8 nmol/kg per rat)
B1	higher activity than the corresponding analogue containing an active SCI and inactive glucagon	stayed in a similar range	did not form amyloid-like fibrils within the duration of the experiment	
B2	slight rise in blood glucose levels			didn't cause an increase in blood-glucose concentrations
